The text below walks through data of publication PMC3514274, “Recombinant sterol esterase from Ophiostoma piceae: an improved biocatalyst expressed in Pichia pastoris” (Microbial Cell Factories, 2012).

Series [1] addresses deglycosylated recombinant sterol esterase from Ophiostoma piceae (OPE* treated with Endo H in non-denaturing conditions) (Ophiostoma piceae). Nature of the series: AUC; sedimentation velocity; purified protein 200 μg/mL in 25 mM sodium phosphate buffer pH 7.0, aqueous solution without detergent.
Series [2] deals with recombinant sterol esterase from Ophiostoma piceae expressed in Pichia pastoris (Ophiostoma piceae). The description is as above.
For series [3] the target is unchanged. Description: AUC; sedimentation equilibrium; purified protein 200 μg/mL in 25 mM sodium phosphate buffer pH 7.0, aqueous solution without detergent.
Substrate in series [4]: CCCC(=O)OCC(COC(=O)CCC)OC(=O)CCC
Nature of the series: pH-stat titration of released fatty acid. The series is classed as biochemical, Ophiostoma piceae. To be noted: 1 mM Tris-HCl pH 7.0, 0.15 M NaCl, 5% (v/v) Genapol X-100, 25°C, substrate emulsified in detergent. From the text: (§1) pH-stat titration of released fatty acid on OPE* (recombinant sterol esterase from Ophiostoma piceae)

Substrate in series [5]: CCCC(=O)O[C@H]1CC[C@@]2(C)C(=CC[C@H]3[C@@H]4CC[C@H]([C@H](C)CCCC(C)C)[C@@]4(C)CC[C@@H]32)C1
Nature of the series: pH-stat titration of released fatty acid. The conditions noted are these: 1 mM Tris-HCl pH 7.0, 0.15 M NaCl, 5% (v/v) Genapol X-100, 25°C, substrate emulsified in detergent. In kind it is biochemical, Ophiostoma piceae.
Source text: as §1

Substrate in series [6]: CCCCC/C=C\C/C=C\CCCCCCCC(=O)O[C@H]1CC[C@@]2(C)C(=CC[C@H]3[C@@H]4CC[C@H]([C@H](C)CCCC(C)C)[C@@]4(C)CC[C@@H]32)C1
Description: pH-stat titration of released fatty acid. In kind it is biochemical, Ophiostoma piceae. To be noted: 1 mM Tris-HCl pH 7.0, 0.15 M NaCl, 5% (v/v) Genapol X-100, 25°C, substrate emulsified in detergent.
Source text: as §1

Substrate in series [7]: CCCCCCCC/C=C\CCCCCCCC(=O)OCC(COC(=O)CCCCCCC/C=C\CCCCCCCC)OC(=O)CCCCCCC/C=C\CCCCCCCC
Description: pH-stat titration of released fatty acid. In kind it is biochemical, Ophiostoma piceae. To be noted: 1 mM Tris-HCl pH 7.0, 0.15 M NaCl, 5% (v/v) Genapol X-100, 25°C, substrate emulsified in detergent.
Source text: as §1

Substrate in series [8]: CCCCCCCC/C=C\CCCCCCCC(=O)O[C@H]1CC[C@@]2(C)C(=CC[C@H]3[C@@H]4CC[C@H]([C@H](C)CCCC(C)C)[C@@]4(C)CC[C@@H]32)C1
Nature of the series: pH-stat titration of released fatty acid. The series is classed as biochemical, Ophiostoma piceae. To be noted: 1 mM Tris-HCl pH 7.0, 0.15 M NaCl, 5% (v/v) Genapol X-100, 25°C, substrate emulsified in detergent.
Source text: as §1

Substrate in the series “purified protein”: CCCCCCCCCCCCCCCC(=O)Oc1ccc([N+](=O)[O-])cc1
Description: purified protein. In kind it is biochemical, Ophiostoma piceae. To be noted: 100 mM sodium phosphate pH 7.0, 0.15 M NaCl, 1% (v/v) Genapol X-100, 25°C.

For the molecule “deglycosylated recombinant sterol esterase from Ophiostoma piceae (OPE* treated with Endo H in non-denaturing conditions) (enzyme)”, the stoichiometry N (usually a count of units in the complex or per binding partner) in series [1] came to 2.

Consider “recombinant sterol esterase from Ophiostoma piceae expressed in Pichia pastoris (enzyme)”, for which the stoichiometry N in series [2] and in series [3] was 2 each time.

B1: OPE* (recombinant sterol esterase from Ophiostoma piceae) (Ophiostoma piceae) (protein)
chain: TTVNVNYPEGEVVGVSVLGIESFRGVPFAQPPVGNLRLKPPVRYTENIGTKDTTGIGPSCPQMYLSTGNGELLFQLVGNLINIPLFQTATLSSEDCLTLNIQRPAGTTSNSSLPVLFWIFGGGFELGTNQYYDGIDLLTEGISLGEPFIFVAINYRVGGFGFLGGKEIKADGSSNLGLLDQRIALEWVADNIASFGGDPSKVTIWGESAGSISVFDQMALYGGNNKYKGKALFRGGIMNSGSVVPAAPVDGVKAQAIYDHVVSEAGCAGTSDTLACLRTVDYTKFLTAVNSVPGIVSYSSIALSYLPRPDGVVLIDSPEEIVKNKQYAAVPMIIGDQEDEGTLFAVLPNNITSTAKIVQYFQDLYFYNATKEQLTAFVNTYPTDITAGSPFNTGIFNELYPGFKRLAAILGDMTFTLARRAFLQLCSEVNPDVPSWSYLASYDYGFPFLGTFHATDILQVFYGVLPNYASGSIQKYYINFVTTGDPNKGAAVDIQWPQWSAKKNILQIYATKAVIVADNFRAKSYEYLYNNIGIFRI
notes: N-terminus (EA)EAYVEF + TTVNVNYPE (6 or 8 extra residues, mixed); monomer/dimer, monomeric in Genapol X-100
As for B1, the Km (in general, the concentration of substrate that gives half-maximal velocity) in series [4] amounted to 5100 ± 300 µM; in series [5] it was 1600 ± 200 µM; in series [6], 710 ± 90 µM; in [7] it was 710 ± 90 µM; in series [8] it was 690 ± 100 µM; in “purified protein”, 370 ± 30 µM. Besides, the kcat (as a rule, the maximal rate divided by the concentration of active sites) in series [4] is 1041 ± 14 s⁻¹; in series [5] it was 212 ± 7 s⁻¹; in series [6], 798 ± 25 s⁻¹; in series [7] it was 1362 ± 41 s⁻¹; in [8] it was 631 ± 21 s⁻¹; in the series “purified protein”, 1049 ± 28 s⁻¹. The kcat/Km (commonly the second-order rate constant that governs catalysis at low substrate concentration) stood at 204000 M⁻¹ s⁻¹ in [4]; 133000 M⁻¹ s⁻¹ in series [5]; 1.13e+06 M⁻¹ s⁻¹ in series [6]; 1.92e+06 M⁻¹ s⁻¹ in [7]; 918000 M⁻¹ s⁻¹ in [8]; 2.88e+06 M⁻¹ s⁻¹ in the series “purified protein”.
